This series concerns Escherichia coli TOP10. Kind of series: shrunken log2 fold change of peptide-encoding DNA abundance (4.5 h post-induction vs induction); higher = less antimicrobial activity (less host growth inhibition). The settings on record: time post-induction: 4.5 h; library: site-saturation at positions 5, 18, 19, 20.
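Note: peptides expressed intracellularly from a pBAD plasmid library in pooled LB shake-flask culture, induced with 0.3% L-arabinose, DNA abundance read by NGS, three biological replicates, DESeq2 with apeglm shrinkage.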

Turning to RRIRVRPPRLPRPRPRPPDTPRP, the “shrunken log2 fold change” value came out at 0.166.
Under RRIRARPPRLPRPRPRPWNAPRP stands -0.124; under RRIRGRPPRLPRPRPRPYWQPRP, -0.369; under RRIRMRPPRLPRPRPRPTRCPRP, 0.863.
Regarding RRIRWRPPRLPRPRPRPGMHPRP, the “shrunken log2 fold change” value came out at 0.343.
Under RRIRYRPPRLPRPRPRPWGAPRP stands -0.315.
In the case of RRIRIRPPRLPRPRPRPFWFPRP it was -0.684.
RRIRWRPPRLPRPRPRPWYLPRP: the “shrunken log2 fold change” value was -0.193.
In the case of RRIRSRPPRLPRPRPRPEPIPRP it was 0.312; in that of RRIRCRPPRLPRPRPRPWFKPRP, -0.582; in that of RRIRLRPPRLPRPRPRPPPTPRP, 1.48.
In the case of RRIRERPPRLPRPRPRPDCWPRP it was -0.0875; in that of RRIRWRPPRLPRPRPRPRECPRP, 0.605; in that of RRIRGRPPRLPRPRPRPHDVPRP, 0.118.
In the case of RRIRSRPPRLPRPRPRPHIVPRP, the “shrunken log2 fold change” value is -0.243.
In the case of RRIRDRPPRLPRPRPRPHEDPRP it was 0.0325.
Under RRIRRRPPRLPRPRPRPCNCPRP stands -0.0759; under RRIRYRPPRLPRPRPRPRMAPRP, 0.0395.
In the case of RRIRKRPPRLPRPRPRPNWPPRP it was 0.19; in that of RRIRRRPPRLPRPRPRPLKEPRP, 0.0888; in that of RRIRNRPPRLPRPRPRPIAEPRP, 0.196.
For RRIRSRPPRLPRPRPRPQCTPRP, the “shrunken log2 fold change” value came to 0.294.
Regarding RRIRTRPPRLPRPRPRPQQCPRP, the “shrunken log2 fold change” value was -0.0115.
In the case of RRIRPRPPRLPRPRPRPVPYPRP it was -0.253; in that of RRIRQRPPRLPRPRPRPPPCPRP, 0.393.
Under RRIRQRPPRLPRPRPRPKRCPRP stands 0.129; under RRIRNRPPRLPRPRPRPHWTPRP, 0.0333.
With RRIRHRPPRLPRPRPRPRYEPRP, the “shrunken log2 fold change” value was -0.0765.
In the case of RRIRSRPPRLPRPRPRPTWMPRP it was 0.0331; in that of RRIRWRPPRLPRPRPRPHRHPRP, -0.131; in that of RRIRWRPPRLPRPRPRPGSGPRP, 0.497.
Under RRIRDRPPRLPRPRPRPMPMPRP stands 0.0753; under RRIRLRPPRLPRPRPRPPIYPRP, -0.15.
Take RRIRVRPPRLPRPRPRPNEGPRP: the “shrunken log2 fold change” value is -0.00311.
Under RRIRVRPPRLPRPRPRPYMTPRP stands -0.566; under RRIRSRPPRLPRPRPRPMKIPRP, 0.108.
As for RRIRVRPPRLPRPRPRPMFMPRP, the “shrunken log2 fold change” value was -0.562.
As to RRIRMRPPRLPRPRPRPLCAPRP, the “shrunken log2 fold change” value was 1.24.
In the case of RRIRWRPPRLPRPRPRPLCYPRP it was 0.0105.
Take RRIRLRPPRLPRPRPRPEQTPRP: the “shrunken log2 fold change” value was -0.000687.
Under RRIRPRPPRLPRPRPRPTRMPRP stands 0.479; under RRIRYRPPRLPRPRPRPCKNPRP, -1.05; under RRIRCRPPRLPRPRPRPPALPRP, 0.415.
Under RRIRWRPPRLPRPRPRPYKPPRP stands -0.539; under RRIRFRPPRLPRPRPRPMQLPRP, 0.0166; under RRIRWRPPRLPRPRPRPKHWPRP, 0.4.
